Assay results: article PMC8940892

Molecular target: small capsid protein (SCP, VP26) of pseudorabies virus (pseudorabies virus (PRV), Bartha strain)
Assay: cryo-EM structure

Substance: small capsid protein (SCP, VP26) of pseudorabies virus (natural protein)
- stoichiometry N: 6
